Biological target: reconstituted nascent HDL (rHDL) particle made with isolated human apoA-I (UniProt P02647)
Sequence (P02647 25-267): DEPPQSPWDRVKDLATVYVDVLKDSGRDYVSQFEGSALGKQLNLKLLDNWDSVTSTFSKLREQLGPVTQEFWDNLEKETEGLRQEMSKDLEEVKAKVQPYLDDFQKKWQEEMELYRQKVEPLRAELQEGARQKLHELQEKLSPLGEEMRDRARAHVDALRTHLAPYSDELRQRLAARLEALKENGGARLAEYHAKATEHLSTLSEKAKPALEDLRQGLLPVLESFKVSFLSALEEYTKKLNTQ

Substance | stability of arylesterase activity at 37° C. in the presence of HDL | rate of inactivation of PON1 (arylesterase activity) with EDTA and β-mercaptoethanol in the presence of rHDL
rPON1 Y293K mutant | the Y293K PON1 mutant shows the fastest rate of inactivation | 
rPON1 Y294K mutant | the rate of Y293K loss in activity is faster than either Y294K or WT PON1, and comparison of Y293K vs. Y294K shows significant difference as well | 
rPON1 pan K mutant (Leu9→Lys9, Tyr185→Lys185 and Tyr293→Lys293) with C-terminal His8 tag |  | no protective effects were observed when the pan K rPON1 mutant was incubated with either rHDL or detergent
recombinant paraoxonase 1 (PON1) variant G3C9, His-tagged (rPON1 WT) | when HDL is present, WT PON1 is quite stable at 37 °C | A very slow inactivation of WT rPON1 was observed in the presence of rHDL
